This is an account of results in IntAct's records for PubMed 15173383.

The labels stand for the following.
B1: DNA polymerase delta small subunit (Saccharomyces cerevisiae), P46957 (parent)
chain: MDALLTKFNEDRSLQDENLSQPRTRVRIVDDNLYNKSNPFQLCYKKRDYGSQYYHIYQYRLKTFRERVLKECDKRWDAGFTLNGQLVLKKDKVLDIQGNQPCWCVGSIYCEMKYKPNVLDEVINDTYGAPDLTKSYTDKEGGSDEIMLEDESGRVLLVGDFIRSTPFITGVVVGILGMEAEAGTFQVLDICYPTPLPQNPFPAPIATCPTRGKIALVSGLNLNNTSPDRLLRLEILREFLMGRINNKIDDISLIGRLLICGNSVDFDIKSVNKDELMISLTEFSKFLHNILPSISVDIMPGTNDPSDKSLPQQPFHKSLFDKSLESYFNGSNKEILNLVTNPYEFSYNGVDVLAVSGKNINDICKYVIPSNDNGESENKVEEGESNDFKDDIEHRLDLMECTMKWQNIAPTAPDTLWCYPYTDKDPFVLDKWPHVYIVANQPYFGTRVVEIGGKNIKIISVPEFSSTGMIILLDLETLEAETVKIDI
partner: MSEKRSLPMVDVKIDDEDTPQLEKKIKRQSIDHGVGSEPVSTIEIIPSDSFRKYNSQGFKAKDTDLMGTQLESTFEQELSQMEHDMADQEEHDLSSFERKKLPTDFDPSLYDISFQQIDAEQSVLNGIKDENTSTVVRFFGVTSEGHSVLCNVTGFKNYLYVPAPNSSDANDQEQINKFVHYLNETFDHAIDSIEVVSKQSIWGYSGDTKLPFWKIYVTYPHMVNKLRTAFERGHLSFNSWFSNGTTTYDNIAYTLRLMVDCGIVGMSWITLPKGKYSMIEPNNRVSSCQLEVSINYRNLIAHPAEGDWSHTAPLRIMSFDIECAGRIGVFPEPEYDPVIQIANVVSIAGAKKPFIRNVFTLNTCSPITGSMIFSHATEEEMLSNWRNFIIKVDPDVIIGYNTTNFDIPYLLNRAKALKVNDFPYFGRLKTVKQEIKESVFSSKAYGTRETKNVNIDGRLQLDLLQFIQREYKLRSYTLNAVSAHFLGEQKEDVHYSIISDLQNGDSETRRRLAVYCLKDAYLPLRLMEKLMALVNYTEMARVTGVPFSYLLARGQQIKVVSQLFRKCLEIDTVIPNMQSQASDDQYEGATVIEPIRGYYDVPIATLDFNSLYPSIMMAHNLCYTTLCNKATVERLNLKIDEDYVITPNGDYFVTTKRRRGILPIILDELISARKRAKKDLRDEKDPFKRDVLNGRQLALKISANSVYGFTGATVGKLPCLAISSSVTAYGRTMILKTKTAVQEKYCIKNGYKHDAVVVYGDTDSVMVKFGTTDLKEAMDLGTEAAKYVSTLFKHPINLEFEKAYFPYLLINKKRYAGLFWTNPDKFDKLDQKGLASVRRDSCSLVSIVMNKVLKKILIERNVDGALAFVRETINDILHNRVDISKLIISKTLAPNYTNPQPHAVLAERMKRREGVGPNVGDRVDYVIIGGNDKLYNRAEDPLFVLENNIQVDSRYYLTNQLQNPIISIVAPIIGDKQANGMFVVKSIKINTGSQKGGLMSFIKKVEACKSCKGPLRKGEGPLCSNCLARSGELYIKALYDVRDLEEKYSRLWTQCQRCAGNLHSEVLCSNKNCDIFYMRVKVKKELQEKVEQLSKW
B2: DNA polymerase delta catalytic subunit (Saccharomyces cerevisiae), P15436 (parent)
chain: B1 partner
partner: B1 chain
B3: DNA polymerase delta catalytic subunit (Schizosaccharomyces pombe (strain ATCC 38366 / 972)), P30316 (parent)
chain: MTDRSSNEGVVLNKENYPFPRRNGSIHGEITDVKRRRLSERNGYGDKKGSSSKEKTSSFEDELAEYASQLDQDEIKSSKDQQWQRPALPAINPEKDDIYFQQIDSEEFTEGSVPSIRLFGVTDNGNSILVHVVGFLPYFYVKAPVGFRPEMLERFTQDLDATCNGGVIDHCIIEMKENLYGFQGNEKSPFIKIFTTNPRILSRARNVFERGEFNFEELFPVGVGVTTFESNTQYLLRFMIDCDVVGMNWIHLPASKYQFRYQNRVSNCQIEAWINYKDLISLPAEGQWSKMAPLRIMSFDIECAGRKGVFPDPSIDPVIQIASIVTQYGDSTPFVRNVFCVDTCSQIVGTQVYEFQNQAEMLSSWSKFVRDVDPDVLIGYNICNFDIPYLLDRAKSLRIHNFPLLGRIHNFFSVAKETTFSSKAYGTRESKTTSIPGRLQLDMLQVMQRDFKLRSYSLNAVCSQFLGEQKEDVHYSIITDLQNGTADSRRRLAIYCLKDAYLPQRLMDKLMCFVNYTEMARVTGVPFNFLLARGQQIKVISQLFRKALQHDLVVPNIRVNGTDEQYEGATVIEPIKGYYDTPIATLDFSSLYPSIMQAHNLCYTTLLDSNTAELLKLKQDVDYSVTPNGDYFVKPHVRKGLLPIILADLLNARKKAKADLKKETDPFKKAVLDGRQLALKVSANSVYGFTGATNGRLPCLAISSSVTSYGRQMIEKTKDVVEKRYRIENGYSHDAVVIYGDTDSVMVKFGVKTLPEAMKLGEEAANYVSDQFPNPIKLEFEKVYFPYLLISKKRYAGLFWTRTDTYDKMDSKGIETVRRDNCPLVSYVIDTALRKMLIDQDVEGAQLFTKKVISDLLQNKIDMSQLVITKALSKTDYAAKMAHVELAERMRKRDAGSAPAIGDRVAYVIIKGAQGDQFYMRSEDPIYVLENNIPIDAKYYLENQLSKPLLRIFEPILGEKASSLLHGDHTRTISMAAPSVGGIMKFAVKVETCLGCKAPIKKGKTALCENCLNRSAELYQRQVAQVNDLEVRFARLWTQCQRCQGSMHQDVICTSRDCPIFYMRIAEHKKLQQSVDLLKRFDEMSW
partner: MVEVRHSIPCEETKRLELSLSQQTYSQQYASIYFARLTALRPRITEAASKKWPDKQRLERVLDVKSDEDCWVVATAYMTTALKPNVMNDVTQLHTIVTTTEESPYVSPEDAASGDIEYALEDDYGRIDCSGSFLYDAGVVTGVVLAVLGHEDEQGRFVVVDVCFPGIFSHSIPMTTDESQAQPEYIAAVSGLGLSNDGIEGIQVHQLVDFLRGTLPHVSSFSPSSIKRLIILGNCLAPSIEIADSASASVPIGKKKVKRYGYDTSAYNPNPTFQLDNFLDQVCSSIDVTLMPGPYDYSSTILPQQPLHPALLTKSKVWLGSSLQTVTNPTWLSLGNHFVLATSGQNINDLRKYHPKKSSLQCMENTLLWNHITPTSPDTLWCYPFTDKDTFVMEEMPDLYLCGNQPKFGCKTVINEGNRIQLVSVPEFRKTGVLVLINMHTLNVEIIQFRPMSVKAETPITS

Variants of B1 are the subject of one assay. Conditions: with dpod_yeast POL3, P15436.
With K358E, the “effect of a mutation on the interaction” value is “increasing interaction”.

In the next assay the parent is B2. To be noted: with dpod2_yeast POL31, P46957.
C1059A: the “effect of a mutation on the interaction” value is on record as “decreasing interaction”. Regarding H1064A, the “effect of a mutation on the interaction” value is “decreasing interaction”. On the same count and under the same terms, to R1058A belongs “decreasing interaction”; to C1069A, “decreasing interaction”. Same read-out and setting: to C1074A belongs “decreasing interaction”; to Q1057A, “decreasing interaction”; to E1047A, “decreasing interaction”. Take C1056A: the “effect of a mutation on the interaction” value is recorded as “decreasing interaction”.

The variants in another assay derive from B3. Conditions: with dpod2_schpo cdc1, P87324.
Consider C1053A, for which the “effect of a mutation on the interaction” value is given as “decreasing interaction”. The same measure, in the same setting: in the case of C1043A it was “decreasing interaction”. Regarding C1040A, the “effect of a mutation on the interaction” value is “decreasing interaction”. In the case of C1058A, the “effect of a mutation on the interaction” value is “decreasing interaction”. As to C1058S, the “effect of a mutation on the interaction” value was “decreasing interaction”.
